This series is described as follows: soluble on expression in E. coli; label from the status in PepcDB or PDB records.

“MAKKTSSKGKLPPGPTPFPIIGNILQIDAKDISKSLTKFSECYGPVFTVYLGMKPTVVLHGYEAVKEALVDLGEEFAGRGSVPILEKVSKGLGIAFSNAKTWKEMRRFSLMTLRNFGMGKRSIEDRIQEEARCLVEELRKTNASPCDPTFILGCAPCNVICSVIFHNRFDYKDEEFLKLMESLHENVELLGTPWLQVYNNFPALLDYFPGIHKTLLKNADYIKNFIMEKVKEHQKLLDVNNPRDFIDCFLIKMEQENNLEFTLESLVIAVSDLFGAGTETTSTTLRYSLLLLLKHPEVAARVQEEIERVIGRHRSPCMQDRSRMPYTDAVIHEIQRFIDLLPTNLPHAVTRDVRFRNYFIPKGTDIITSLTSVLHDEKAFPNPKVFDPGHFLDESGNFKKSDYFMPFSAGKRMCVGEGLARMELFLFLTSILQNFKLQSLVEPKDLDITAVVNGFVSVPPSYQLCFIPIHHHH”: the “soluble on expression in E. coli” value was “soluble”. For “VTVQDGNFSFSLESVKKLKDLQEPQEPRVGKLRNFAPIPGEPVVPILCSNPNFPEELKPLCKEPNAQEILQRLEEIAEDPGTCEICAYAACTGC”, the “soluble on expression in E. coli” value was “soluble”.

For the origin of these results see the DeepSol protein solubility set.
